Target: hyperphosphorylated human tau P301L (4R0N) from rTg4510 mouse brain (64 and 70 kDa species) (human) (UniProt P10636)
Assay: binding to P301L human mutant tau isolated from 10 month old Tg4510 mice

hyperphosphorylated human tau P301L (4R0N) from rTg4510 mouse brain (64 and 70 kDa species) (human), sequence (P10636 other isoform, or with tags, fused parts or gaps P301L P301L): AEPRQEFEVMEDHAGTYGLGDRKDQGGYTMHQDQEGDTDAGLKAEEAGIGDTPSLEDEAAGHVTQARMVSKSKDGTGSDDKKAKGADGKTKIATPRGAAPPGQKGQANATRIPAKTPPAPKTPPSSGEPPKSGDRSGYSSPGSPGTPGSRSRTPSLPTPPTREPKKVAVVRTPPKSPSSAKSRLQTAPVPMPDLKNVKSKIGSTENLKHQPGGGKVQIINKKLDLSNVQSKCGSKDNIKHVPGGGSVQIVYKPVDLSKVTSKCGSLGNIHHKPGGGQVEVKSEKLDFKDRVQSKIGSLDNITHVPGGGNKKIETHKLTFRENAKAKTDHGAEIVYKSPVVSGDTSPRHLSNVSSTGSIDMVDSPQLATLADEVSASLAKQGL

B1: 4E4 (antibody, from another filing, V domains shown)
VH: EVQLVESGGGLVQPGGSLKLSCAASGFNFNISAIHWVRQASGKGLEWVGRIRSKSHNYATLYAASLKGRFTLSRDDSRNTAYLQMSSLQTEDMAVYYCTVLSANYDTFDYWGQGTLVTVSS
VL: SYELTQPPSVSVSPGQTARISCFGDTLPKQYTYWYQQKPGQAPVLVIYKDTERPSGIPERFSGSSSGTTVTLTISGVQAEDEADYYCLSADNSATWVFGGGTKVTVL
With B1 the TG/wt (binding to P301L tau from Tg4510 mice over wild type) was 1.

From patent US20190330320A1
